{"source": "paper PMC9352680", "about": "“A comprehensive thermodynamic model for RNA binding by the Saccharomyces cerevisiae Pumilio protein PUF4”", "biological_target": "T1, PUF4 RNA-binding domain (Saccharomyces cerevisiae, UniProt P25339 537-888)", "T1 sequence": "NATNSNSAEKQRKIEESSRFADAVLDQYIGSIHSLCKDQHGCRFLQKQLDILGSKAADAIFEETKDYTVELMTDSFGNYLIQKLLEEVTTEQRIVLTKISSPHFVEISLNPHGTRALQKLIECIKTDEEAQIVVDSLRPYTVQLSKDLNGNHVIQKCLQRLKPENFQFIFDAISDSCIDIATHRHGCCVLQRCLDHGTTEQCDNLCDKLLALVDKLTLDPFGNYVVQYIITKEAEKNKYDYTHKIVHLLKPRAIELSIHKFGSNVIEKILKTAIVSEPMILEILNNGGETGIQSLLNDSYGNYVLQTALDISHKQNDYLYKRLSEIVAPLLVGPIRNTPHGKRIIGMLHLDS", "experiment": "Mg; RNA-MaP; 20 mM Na-HEPES pH 7.4, 30 mM KOAc, 0.75 mM MgCl2, 0.1% Tween-20, 5% glycerol, 0.1 mg/mL BSA, 2 mM DTT; 25 C; 0.0125-409.6 nM protein", "settings": "tags: N-His6-TEV cleaved; C-SNAP kept, Cy3B-labelled; label: tethered on chip by stalled RNA polymerase"}
{"binder": "ACAAACCAUAUAUUAUUAACACAAAC (ssRNA)", "note": "[Id_ii_S3_P5E.3_K5.2_C5.2_[T-1A]_H5.2_A5.1_F5.1_T5.2_[T11A]_[A12C]]", "values": [{"measurement": "Kd", "result": 201, "unit": "nM"}]}
{"binder": "ACAAACUAUAUAUUAUUAUUACAAAC (ssRNA)", "note": "[Id_ii_S3_P5E.3_K5.2_C5.2_[C-2T]_[T-1A]_H5.2_A5.1_F5.1_T5.2_[A12T]]", "values": [{"measurement": "Kd", "result": 19.2, "unit": "nM"}]}
{"binder": "ACAAACCUUAUAUUAUUAGAACAAAC (ssRNA)", "note": "[Id_ii_S3_P5E.3_K5.2_C5.2_H5.2_A5.1_F5.1_T5.2_[T11G]]", "values": [{"measurement": "Kd", "result": 108, "unit": "nM"}]}
{"binder": "ACAAACUUUAUAUUAUUACCACAAAC (ssRNA)", "note": "[Id_ii_S3_P5E.3_K5.2_C5.2_[C-2T]_H5.2_A5.1_F5.1_T5.2_[T11C]_[A12C]]", "values": [{"measurement": "Kd", "result": 268, "unit": "nM"}]}
{"binder": "ACAAACAAUAUAUUAUUAACACAAAC (ssRNA)", "note": "[Id_ii_S3_P5E.3_K5.2_C5.2_[C-2A]_[T-1A]_H5.2_A5.1_F5.1_T5.2_[T11A]_[A12C]]", "values": [{"measurement": "Kd", "result": 535, "unit": "nM"}]}
{"binder": "UCUCUUGGCAUUAUUAUCUCUU (ssRNA)", "note": "[Ib_S1_P5E.1_K5.1_C5.1_H5.1_[T1G]_[T3C]_A5.1_F5.1_T5.1]", "values": [{"measurement": "Kd", "result": 1040, "unit": "nM"}]}
{"binder": "ACAAACCAUAUAUUAUUACAACAAAC (ssRNA)", "note": "[Id_ii_S3_P5E.3_K5.2_C5.2_[T-1A]_H5.2_A5.1_F5.1_T5.2_[T11C]]", "values": [{"measurement": "Kd", "result": 240, "unit": "nM"}]}
{"binder": "ACAAACCCUAUAUUAUUAAUACAAAC (ssRNA)", "note": "[Id_ii_S3_P5E.3_K5.2_C5.2_[T-1C]_H5.2_A5.1_F5.1_T5.2_[T11A]_[A12T]]", "values": [{"measurement": "Kd", "result": 464, "unit": "nM"}]}
{"binder": "ACAAACACUAUAUUAUUAAAACAAAC (ssRNA)", "note": "[Id_ii_S3_P5E.3_K5.2_C5.2_[C-2A]_[T-1C]_H5.2_A5.1_F5.1_T5.2_[T11A]]", "values": [{"measurement": "Kd", "result": 485, "unit": "nM"}]}
{"binder": "ACAAACGGACACUUAUUAAGACAAAC (ssRNA)", "note": "[Id_ii_S3_P5E.4_K5.3_C5.2_[C-2G]_[T-1G]_H5.3_A5.1_F5.1_T5.2_[T11A]_[A12G]]", "values": [{"measurement": "Kd", "result": "> 2300", "unit": "nM"}]}
{"binder": "UCUCUUCGUGUUAUUAUCUCUU (ssRNA)", "note": "[Ib_S1_P5E.1_K5.1_C5.1_H5.1_[T1C]_[A4G]_A5.1_F5.1_T5.1]", "values": [{"measurement": "Kd", "result": 2300, "unit": "nM"}]}
{"binder": "ACAAACGAUAUAUUAUUAGCACAAAC (ssRNA)", "note": "[Id_ii_S3_P5E.3_K5.2_C5.2_[C-2G]_[T-1A]_H5.2_A5.1_F5.1_T5.2_[T11G]_[A12C]]", "values": [{"measurement": "Kd", "result": 164, "unit": "nM"}]}
{"binder": "ACAAACCCUAUAUUAUUACUACAAAC (ssRNA)", "note": "[Id_ii_S3_P5E.3_K5.2_C5.2_[T-1C]_H5.2_A5.1_F5.1_T5.2_[T11C]_[A12T]]", "values": [{"measurement": "Kd", "result": 400, "unit": "nM"}]}
{"binder": "ACAAACGCACACUUAUUAAGACAAAC (ssRNA)", "note": "[Id_ii_S3_P5E.4_K5.3_C5.2_[C-2G]_[T-1C]_H5.3_A5.1_F5.1_T5.2_[T11A]_[A12G]]", "values": [{"measurement": "Kd", "result": "> 2300", "unit": "nM"}]}
{"binder": "ACAAACAAUAUAUUAUUAAUACAAAC (ssRNA)", "note": "[Id_ii_S3_P5E.3_K5.2_C5.2_[C-2A]_[T-1A]_H5.2_A5.1_F5.1_T5.2_[T11A]_[A12T]]", "values": [{"measurement": "Kd", "result": 614, "unit": "nM"}]}
{"binder": "ACAAACGAUAUAUUAUUAGGACAAAC (ssRNA)", "note": "[Id_ii_S3_P5E.3_K5.2_C5.2_[C-2G]_[T-1A]_H5.2_A5.1_F5.1_T5.2_[T11G]_[A12G]]", "values": [{"measurement": "Kd", "result": 164, "unit": "nM"}]}
{"binder": "ACAAACGCACACUUAUUAUGACAAAC (ssRNA)", "note": "[Id_ii_S3_P5E.4_K5.3_C5.2_[C-2G]_[T-1C]_H5.3_A5.1_F5.1_T5.2_[A12G]]", "values": [{"measurement": "Kd", "result": "> 2300", "unit": "nM"}]}
{"binder": "ACAAACGAUAUAUUAUUACAACAAAC (ssRNA)", "note": "[Id_ii_S3_P5E.3_K5.2_C5.2_[C-2G]_[T-1A]_H5.2_A5.1_F5.1_T5.2_[T11C]]", "values": [{"measurement": "Kd", "result": 173, "unit": "nM"}]}
{"binder": "ACAAACCCUAUAUUAUUAAAACAAAC (ssRNA)", "note": "[Id_ii_S3_P5E.3_K5.2_C5.2_[T-1C]_H5.2_A5.1_F5.1_T5.2_[T11A]]", "values": [{"measurement": "Kd", "result": 673, "unit": "nM"}]}
{"binder": "ACAAACAAUAUAUUAUUAGUACAAAC (ssRNA)", "note": "[Id_ii_S3_P5E.3_K5.2_C5.2_[C-2A]_[T-1A]_H5.2_A5.1_F5.1_T5.2_[T11G]_[A12T]]", "values": [{"measurement": "Kd", "result": 118, "unit": "nM"}]}
{"binder": "ACAAACUCUAUAUUAUUAAGACAAAC (ssRNA)", "note": "[Id_ii_S3_P5E.3_K5.2_C5.2_[C-2T]_[T-1C]_H5.2_A5.1_F5.1_T5.2_[T11A]_[A12G]]", "values": [{"measurement": "Kd", "result": 684, "unit": "nM"}]}
{"binder": "ACAAACUAUAUAUUAUUACAACAAAC (ssRNA)", "note": "[Id_ii_S3_P5E.3_K5.2_C5.2_[C-2T]_[T-1A]_H5.2_A5.1_F5.1_T5.2_[T11C]]", "values": [{"measurement": "Kd", "result": 13.5, "unit": "nM"}]}
{"binder": "ACAAACCCUAUAUUAUUACCACAAAC (ssRNA)", "note": "[Id_ii_S3_P5E.3_K5.2_C5.2_[T-1C]_H5.2_A5.1_F5.1_T5.2_[T11C]_[A12C]]", "values": [{"measurement": "Kd", "result": 448, "unit": "nM"}]}
{"binder": "ACAAACAGUAUAUUAUUAAGACAAAC (ssRNA)", "note": "[Id_ii_S3_P5E.3_K5.2_C5.2_[C-2A]_[T-1G]_H5.2_A5.1_F5.1_T5.2_[T11A]_[A12G]]", "values": [{"measurement": "Kd", "result": 36.4, "unit": "nM"}]}
{"binder": "UCUCUUUGUAAUAUUAUCUCUU (ssRNA)", "note": "[Ia_S1_P5E.1_K5.1_C5.1_H5.1_A5.1_[T5A]_F5.1_T5.1]", "values": [{"measurement": "Kd", "result": 6.33, "unit": "nM"}]}
{"binder": "ACAAACAGUAUAUUAUUAGAACAAAC (ssRNA)", "note": "[Id_ii_S3_P5E.3_K5.2_C5.2_[C-2A]_[T-1G]_H5.2_A5.1_F5.1_T5.2_[T11G]]", "values": [{"measurement": "Kd", "result": 35.5, "unit": "nM"}]}
{"binder": "ACAAACUUUAUAUUAUUAGCACAAAC (ssRNA)", "note": "[Id_ii_S3_P5E.3_K5.2_C5.2_[C-2T]_H5.2_A5.1_F5.1_T5.2_[T11G]_[A12C]]", "values": [{"measurement": "Kd", "result": 82.9, "unit": "nM"}]}
{"binder": "ACAAACACUAUAUUAUUACAACAAAC (ssRNA)", "note": "[Id_ii_S3_P5E.3_K5.2_C5.2_[C-2A]_[T-1C]_H5.2_A5.1_F5.1_T5.2_[T11C]]", "values": [{"measurement": "Kd", "result": 459, "unit": "nM"}]}
{"binder": "ACAAACCAUAUAUUAUUAAAACAAAC (ssRNA)", "note": "[Id_ii_S3_P5E.3_K5.2_C5.2_[T-1A]_H5.2_A5.1_F5.1_T5.2_[T11A]]", "values": [{"measurement": "Kd", "result": 631, "unit": "nM"}]}
{"binder": "ACAAACGCACACUUAUUAAAACAAAC (ssRNA)", "note": "[Id_ii_S3_P5E.4_K5.3_C5.2_[C-2G]_[T-1C]_H5.3_A5.1_F5.1_T5.2_[T11A]]", "values": [{"measurement": "Kd", "result": "> 2300", "unit": "nM"}]}
{"binder": "ACAAACACUAUAUUAUUAUCACAAAC (ssRNA)", "note": "[Id_ii_S3_P5E.3_K5.2_C5.2_[C-2A]_[T-1C]_H5.2_A5.1_F5.1_T5.2_[A12C]]", "values": [{"measurement": "Kd", "result": 370, "unit": "nM"}]}
